Positions count from the first letter of the chain named. Names and notes keep the numbering of the source.
How the values were obtained:
SEC = molecular target: the molecule itself; test: SEC
[1] = molecular target: the molecule itself; test: negative-stain electron microscopy

B1: MBP-TorsinA (human TorsinA residues 51-332, N-terminal MBP tag) (domain or fragment)
chain: GQKRSLSREALQKDLDDNLFGQHLAKKIILNAVFGFINNPKPKKPLTLSLHGWTGTGKNFVSKIIAENIYEGGLNSDYVHLFVATLHFPHASNITLYKDQLQLWIRGNVSACARSIFIFDEMDKMHAGLIDAIKPFLDYYDLVDGVSYQKAMFIFLSNAGAERITDVALDFWRSGKQREDIKLKDIEHALSVSVFNNKNSGFWHSSLIDRNLIDYFVPFLPLEYKHLKMCIRVEMQSRGYEIDEDIVSRVAEEMTFFPKEERVFSDKGCKTVFTKLDYYYDD
B1: binds (SEC).

B2: TorsinA K174A (human, residues 51-332) (domain or fragment)
chain: B1 chain with K124A
B2: binds [1].

B3: TorsinA H140N (human, residues 51-332) (domain or fragment)
chain: B1 chain with H90N
B3: binds [1].

B4: TorsinA K174E (human, residues 51-332) (domain or fragment)
chain: B1 chain with K124E
B4: binds [1].

B5: TorsinA (human, residues 51-332) after cleavage of the MBP tag with 3C protease (domain or fragment)
chain: B1 chain
B5: binds [1].

From paper doi:10.1101/567099 (bioRxiv, 2019)
